{
  "source": "paper PMC10682391",
  "about": "“Discovery of a non-canonical prototype long-chain monoacylglycerol lipase through a structure-based endogenous reaction intermediate complex” (Nature Communications, 2023)",
  "key": {"Tth MAG lipase [1]": {"biological_target": "T1, Tth MAG lipase (Thermoanaerobacter ethanolicus, UniProt A0A1G7VV58)", "T1 construct": "gene SAMN04244560_02687; full length, residues 1-259; E. coli; pETM-14, Ni-NTA purified (kinetics); pETBlue-1 (crystals, some SeMet and lysine-methylated); homodimer; Ser113/His233, HGF 35-37, FSE 77-79, lid 141-183", "assay": "X-ray crystal structure; LC-MS of dissolved crystals", "type": "binding", "conditions": "endogenous ligand from E. coli; loosely coordinated tetrahedral intermediate at Ser113; SeMet, lysine-methylated protein; active site and lid tunnel"}, "Tth MAG lipase [2]": {"biological_target": "T1, Tth MAG lipase", "assay": "X-ray crystal structure", "type": "binding", "conditions": "active site, bound by Glu43; native protein crystals, no glycerol added"}, "[3]": {"biological_target": "Tth MAG lipase (wild type), monoacylglycerol lipase from Thermoanaerobacter thermohydrosulfuricus (Thermoanaerobacter thermohydrosulfuricus)", "assay": "SEC; size exclusion chromatography profile, Superdex 75 increase 3.2/300 column (Cytiva); dimeric and monomeric fractions"}, "Tth MAG lipase [4]": {"biological_target": "T1, Tth MAG lipase", "assay": "pNP ester hydrolysis, […] nm, Michaelis-Menten fit", "type": "biochemical", "conditions": "50 mM Tris-HCl pH 8.0, 40 °C, 1 mg/ml gum arabic"}, "purified protein [5]": {"substrate": "CCCCCCCCCCCCCC(=O)Oc1ccc([N+](=O)[O-])cc1", "assay": "purified protein", "type": "biochemical, Thermoanaerobacter ethanolicus", "conditions": "50 mM Tris-HCl pH 8.0, 40 °C, 1 mg/ml gum arabic"}, "purified protein [6]": {"substrate": "CCCC(=O)Oc1ccc([N+](=O)[O-])cc1", "assay": "purified protein", "type": "biochemical, Thermoanaerobacter ethanolicus", "conditions": "50 mM Tris-HCl pH 8.0, 40 °C, 1 mg/ml gum arabic"}, "purified protein [7]": {"substrate": "CCCCCCCC(=O)Oc1ccc([N+](=O)[O-])cc1", "assay": "purified protein", "type": "biochemical, Thermoanaerobacter ethanolicus", "conditions": "50 mM Tris-HCl pH 8.0, 40 °C, 1 mg/ml gum arabic"}, "purified protein [8]": {"substrate": "CCCCCCCCCCCC(=O)Oc1ccc([N+](=O)[O-])cc1", "assay": "purified protein", "type": "biochemical, Thermoanaerobacter ethanolicus", "conditions": "50 mM Tris-HCl pH 8.0, 40 °C, 1 mg/ml gum arabic"}, "purified protein [9]": {"substrate": "CCCCCC(=O)Oc1ccc([N+](=O)[O-])cc1", "assay": "purified protein", "type": "biochemical, Thermoanaerobacter ethanolicus", "conditions": "50 mM Tris-HCl pH 8.0, 40 °C, 1 mg/ml gum arabic"}},
  "data": [
    {"molecule": "CCCCCCCCCCCCCCCCCC(=O)OCC(O)CO", "note": "(stereo not shown) [glycerol monostearate, 2,3-dihydroxypropyloctadecanoate]", "values": [
      {"measurement": "X-ray crystal structure; LC-MS of dissolved crystals", "setting": "Tth MAG lipase [1]", "result": "we modeled a monostearate (C18) acyl ligand into the electron density of the active Tth"}
    ]},
    {"molecule": "OCC(O)CO", "note": "[glycerol]", "values": [
      {"measurement": "X-ray crystal structure", "setting": "Tth MAG lipase [2]", "result": "glycerol is found in a literally identical active site position in five out of six"}
    ]},
    {"molecule": "Tth MAG lipase (wild type), monoacylglycerol lipase from Thermoanaerobacter thermohydrosulfuricus (enzyme)", "values": [
      {"measurement": "stoichiometry N", "setting": "[3]", "result": 2}
    ]},
    {"molecule": "CC(=O)Oc1ccc([N+](=O)[O-])cc1", "note": "[C2 pNP ester]", "values": [
      {"measurement": "Km", "setting": "Tth MAG lipase [4]", "result": "> 2000", "unit": "µM"}
    ]},
    {"molecule": "Tth MAG lipase (Thermoanaerobacter ethanolicus subsp. thermohydrosulfuricus) (protein, full length, residues 1-259; E. coli; pETM-14, Ni-NTA purified (kinetics); pETBlue-1 (crystals, some SeMet and lysine-methylated); homodimer; Ser113/His233, HGF 35-37, FSE 77-79, lid 141-183) MQKAVEITYNGKTLRGMMHLPDDVKGKVPMVIMFHGFTGNKVESHFIFVKMSRALEKVGIGSVRFDFYGSGESDGDFSEMTFSSELEDARQILKFVKEQPTTDPERIGLLGLSMGGAIAGIVAREYKDEIKALVLWAPAFNMPELIMHESVKQYGAIMEQLGFVDIGGHKLSKDFVEDISKLNIFELSKGYDKKVLIVHGTNDEAVEYKVSDRILKEVYGDNATRVTIENADHTFKSLEWEKKAIEESVEFFKKELLKG", "values": [
      {"measurement": "Km", "setting": "purified protein [5]", "result": 100, "unit": "µM"},
      {"measurement": "Km", "setting": "purified protein [6]", "result": "7.1 ± 0.7 x 10^-1 mM"},
      {"measurement": "kcat", "setting": "purified protein [6]", "result": "8.6 ± 0.5", "unit": "s⁻¹"},
      {"measurement": "Km", "setting": "purified protein [7]", "result": "4.9 ± 1.5 x 10^-1 mM"},
      {"measurement": "kcat", "setting": "purified protein [7]", "result": "5.5 ± 0.8", "unit": "s⁻¹"},
      {"measurement": "Km", "setting": "purified protein [8]", "result": 100, "unit": "µM"},
      {"measurement": "Km", "setting": "purified protein [9]", "result": "3.6 ± 0.8 x 10^-1 mM"},
      {"measurement": "kcat", "setting": "purified protein [9]", "result": "4.9 ± 0.4", "unit": "s⁻¹"}
    ]},
    {"molecule": "Tth MAG lipase (Thermoanaerobacter ethanolicus subsp. thermohydrosulfuricus; E43A) (protein, full length, residues 1-259; E. coli; pETM-14, Ni-NTA purified (kinetics); pETBlue-1 (crystals, some SeMet and lysine-methylated); homodimer; Ser113/His233, HGF 35-37, FSE 77-79, lid 141-183) MQKAVEITYNGKTLRGMMHLPDDVKGKVPMVIMFHGFTGNKVASHFIFVKMSRALEKVGIGSVRFDFYGSGESDGDFSEMTFSSELEDARQILKFVKEQPTTDPERIGLLGLSMGGAIAGIVAREYKDEIKALVLWAPAFNMPELIMHESVKQYGAIMEQLGFVDIGGHKLSKDFVEDISKLNIFELSKGYDKKVLIVHGTNDEAVEYKVSDRILKEVYGDNATRVTIENADHTFKSLEWEKKAIEESVEFFKKELLKG", "values": [
      {"measurement": "Km", "setting": "purified protein [9]", "result": "7.1 ± 3.0 x 10^-1 mM"},
      {"measurement": "kcat", "setting": "purified protein [9]", "result": "1.2 ± 0.3 x 10^1 s^-1"}
    ]},
    {"molecule": "Tth MAG lipase (Thermoanaerobacter ethanolicus subsp. thermohydrosulfuricus; Y154A) (protein, full length, residues 1-259; E. coli; pETM-14, Ni-NTA purified (kinetics); pETBlue-1 (crystals, some SeMet and lysine-methylated); homodimer; Ser113/His233, HGF 35-37, FSE 77-79, lid 141-183) MQKAVEITYNGKTLRGMMHLPDDVKGKVPMVIMFHGFTGNKVESHFIFVKMSRALEKVGIGSVRFDFYGSGESDGDFSEMTFSSELEDARQILKFVKEQPTTDPERIGLLGLSMGGAIAGIVAREYKDEIKALVLWAPAFNMPELIMHESVKQAGAIMEQLGFVDIGGHKLSKDFVEDISKLNIFELSKGYDKKVLIVHGTNDEAVEYKVSDRILKEVYGDNATRVTIENADHTFKSLEWEKKAIEESVEFFKKELLKG", "values": [
      {"measurement": "Km", "setting": "purified protein [9]", "result": "4.8 ± 0.8 x 10^-1 mM"},
      {"measurement": "kcat", "setting": "purified protein [9]", "result": "5.7 ± 0.4", "unit": "s⁻¹"}
    ]}
  ]
}
